Biological target: T1, PfSir2A (Plasmodium falciparum Sir2), GST fusion (Plasmodium falciparum, UniProt Q8IE47 1-273)
T1 sequence (looked up): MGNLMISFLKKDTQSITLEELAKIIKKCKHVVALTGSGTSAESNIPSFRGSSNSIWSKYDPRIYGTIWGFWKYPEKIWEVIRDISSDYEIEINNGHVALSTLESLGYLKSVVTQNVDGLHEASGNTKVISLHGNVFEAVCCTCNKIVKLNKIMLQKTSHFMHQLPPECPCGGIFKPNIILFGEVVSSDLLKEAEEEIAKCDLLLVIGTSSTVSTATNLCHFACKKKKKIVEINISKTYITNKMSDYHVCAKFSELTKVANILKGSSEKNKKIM
Assay: pull-down

B1: PfAlba3 (Plasmodium falciparum Alba 3), His-tag fusion protein (natural protein, UniProt Q8IJX8 1-107, looked up)
chain: MASTEEVSQERSENSIQVSMTKKPTFYARIGKRMFTGNEEKNPFDEVIITGLGNATKIAIGAASIMEKEDIGQIVKVQTAYFSSDRINRRIPKITIVLKKHPDFVAN
binding result: binds

From paper PMC3273813 (Nucleic Acids Research, 2011)
